What was measured:
[1] = target: hemagglutinin of H2N2 A/Singapore/1/57 (influenza virus H2N2 A/Singapore/1/57, UniProt Q67333 16-562); assay: Western blot; virus, eggs
[2] = target: hemagglutinin of H4N6 A/Duck/Czechoslovakia/56 (influenza virus H4N6 …, UniProt P19696 17-564); assay: Western blot; virus, eggs
[3] = target: hemagglutinin of H7N3/A/Turkey/Oregon/71 (influenza virus H7N3 A/Turkey/Oregon/71, UniProt P03458 19-560); assay: Western blot; virus, eggs
[4] = target: hemagglutinin of H8N4 A/Turkey/Ontario/6118/68 (influenza virus H8N4 …, UniProt P03456 16-565); assay: Western blot; virus, eggs
[5] = target: hemagglutinin of H9N2 A/Turkey/Wisconsin/1/66 (influenza virus H9N2 …, UniProt P03457 19-560); assay: Western blot; virus, eggs
[6] = target: hemagglutinin of H13N6 A/Gull/Maryland/704/77 (influenza virus H13N6 …, UniProt P13103 19-566); assay: Western blot; virus, eggs
[7] = target: hemagglutinin of H12N5 A/Duck/Alberta/60/76 (influenza virus H12N5 …, UniProt P03446 17-564); assay: Western blot; virus, MDCK cells
[8] = target: T1, hemagglutinin of H3N2 A/Brisbane/10/2007 (influenza virus H3N2 A/Brisbane/10/2007); assay: dot blot, 4M urea; rHA (BEI Res.), dot 6
T1 construct: rHA (BEI Resources)

[9] = target: T2, hemagglutinin of H1N1 A/Puerto Rico/8/1934 (influenza virus H1N1 A/Puerto …, UniProt P03452 18-528); assay: dot blot, 4M urea; rHA (Prot. Sc.), dot 1
[10] = target: hemagglutinin of H3N2 A/Wisconsin/67/2005 (influenza virus H3N2 A/Wisconsin/67/2005); assay: dot blot, 4M urea; rHA (Prot. Sc.), dot 4
[11] = target: hemagglutinin of B/Brisbane/60/2008 (influenza virus B/Brisbane/60/2008); assay: dot blot, 4M urea; rHA (Prot. Sc.), dot 11
[12] = target: T3, hemagglutinin of H1N1 A/California/06/2008 (influenza virus H1N1 …); assay: dot blot, 4M urea; rHA (Imm. Techn.), dot 2
[13] = target: T4, hemagglutinin of H3N2 A/Hong Kong/8/1968 (influenza virus H3N2 A/Hong Kong/8/1968); assay: dot blot, 4M urea; rHA (Imm. Techn.), dot 5
[14] = target: T2, hemagglutinin of H1N1 A/Puerto …; assay: dot blot, 4M urea; virus (HEK293/NRC), dot 17
[15] = target: T4, hemagglutinin of H3N2 A/Hong Kong/8/1968; assay: dot blot, 4M urea; virus (HEK293/NRC), dot 19
[16] = target: T3, hemagglutinin of H1N1 …; assay: dot blot, 4M urea; inactivated virus (egg/NIBSC), dot 12
[17] = target: hemagglutinin of H3N2 A/Texas/50/2012 (influenza virus H3N2 A/Texas/50/2012); assay: dot blot, 4M urea; inactivated virus (egg/NIBSC), dot 13
[18] = target: hemagglutinin of B/Massachusetts/2/2012 (influenza virus B/Massachusetts/2/2012); assay: dot blot, 4M urea; inactivated virus (egg/NIBSC), dot 14

| Binder | binding result [1] | binding result [2] | binding result [3] | binding result [4] | binding result [5] | binding result [6] | binding result [7] | signal intensity [8] | signal intensity [9] | signal intensity [10] | signal intensity [11] | signal intensity [12] | signal intensity [13] | signal intensity [14] | signal intensity [15] | signal intensity [16] | signal intensity [17] | signal intensity [18] |
| --- | --- | --- | --- | --- | --- | --- | --- | --- | --- | --- | --- | --- | --- | --- | --- | --- | --- | --- |
| F211-10A9 (antibody, V domains shown) VH: QIQLQQSGPELVKPGAPVKISCKASGYTFTDYYIHWVNQRPGQGLEWIGYIYPGNGHTVYNQKFKVRATLTADNPSSTAYLQLNSLTSEDSGVYFCAYDLFNYWGQGTLVTVSA VL: DIVMTQSPSSLAMSVGQKVTMSCKSSQSLLNSDTQKNFLAWYQQKPGQSPKILVYFASTKESGVPDRFIGSGSGTDFTLTITSVQAEDLADYFCQQYYSIPLTFGAGTKLELK | binds | binds | binds | binds | binds | binds | binds | 11500 arbitrary fluorescent units | 2520 arbitrary fluorescent units | 791 arbitrary fluorescent units | 25800 arbitrary fluorescent units | 2780 arbitrary fluorescent units | 5670 arbitrary fluorescent units | 7450 arbitrary fluorescent units | 319 arbitrary fluorescent units | 227 arbitrary fluorescent units | 412 arbitrary fluorescent units | 240 arbitrary fluorescent units |
| F211-11H12 (antibody, V domains shown) VH: DVQLQESGPGLVKPSQSLSLTCSVTGYSITSDYYWNWIRQFPGNKLEWMAYIGYDGTKNYNPSLKNRISITRDTSKNQFFLKLNSVTTDDTATYYCTRDRANWDDYFDYWGQGTTLTVSS VL: DIVMSQSPSSLAVSVGEKVTMSCKSSQSLLNSRNQKNHLAWYQQKPGQSPKLLIYWASTRESGVPDRFTGDGSGTDFTLTISSVKAEDLAVYYCQQYYTYRTFGGGTKLEIK |  | no binding (tested: 2µg/ml) | no binding (tested: 2µg/ml) |  |  |  |  | 280 arbitrary fluorescent units | 20300 arbitrary fluorescent units | 176 arbitrary fluorescent units | 38500 arbitrary fluorescent units | 5120 arbitrary fluorescent units | 464 arbitrary fluorescent units | 6540 arbitrary fluorescent units | 201 arbitrary fluorescent units | 14400 arbitrary fluorescent units | 201 arbitrary fluorescent units | 9930 arbitrary fluorescent units |
| F211-9D1 (antibody, V domains shown) VH: DVQLQESGPGLVKPSQSLSLTCSVTGYSITSDYYWNWIRQFPGNKLEWMAYIGYDGSKNYNPSLKNRISITRDTSKNQFFLKLNSVTTDDTATYYCTRDRANWDDYFDYWGQGTTLTVSS VL: DIVMSQSPSSLAVSVGEKVTMSCKSSQSLLNSRNQKNHLAWYQQKPGQSPKLLIYWASTRESGVPDRFSGDGSGTDFTLTISSVKAEDLAVYYCQQYYTYRTFGGGTKLEIK |  |  |  |  |  |  |  | 362 arbitrary fluorescent units | 21400 arbitrary fluorescent units | 70 arbitrary fluorescent units | 41100 arbitrary fluorescent units | 5780 arbitrary fluorescent units | 651 arbitrary fluorescent units | 7810 arbitrary fluorescent units | 108 arbitrary fluorescent units | 17400 arbitrary fluorescent units | 238 arbitrary fluorescent units | 10500 arbitrary fluorescent units |
